The results in this text go back to the supplement of paper PMC11316812.

± gives the standard deviation of the averaged measurements.

One series concerns hTERT-HMEC. Description: percentage of EdU-negative (G0-arrested) nuclei per well, 72 h; higher = more G0 arrest. The settings on record: reference: sequence is the full UniProt precursor, the tested protein was the secreted form or ectodomain.
The test system of another series is MCF7. The description is as above. Particulars: reference: sequence is the full UniProt precursor, the tested protein was the secreted form or ectodomain.
Where [1] appears, read: protein concentration 0.0225 µM.
Where [2] appears, read: protein concentration 0.0125 µM.
[3] abbreviates: protein concentration 0.01525 µM.
Where [4] appears, read: protein concentration 0.1525 µM.
[5] abbreviates: protein concentration 0.00725 µM.
Where [6] appears, read: protein concentration 0.0725 µM.
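Further: secreted proteins added to cultured cells, EdU pulse at the end, nuclei found by Hoechst imaging, EdU status from nuclear versus surrounding ring intensity ratio, PBS as neutral control.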

Turning to “MPRRSLHAAAVLLLVILKEQPSSPAPVNGSKWTYFGPDGENSWSKKYPSCGGLLQSPIDLHSDILQYDASLTPLEFQGYNLSANKQFLLTNNGHSVKLNLPSDMHIQGLQSRYSATQLHLHWGNPNDPHGSEHTVSGQHFAAELHIVHYNSDLYPDASTASNKSEGLAVLAVLIEMGSFNPSYDKIFSHLQHVKYKGQEAFVPGFNIEELLPERTAEYYRYRGSLTTPPCNPTVLWTVFRNPVQISQEQLLALETALYCTHMDDPSPREMINNFRQVQKFDERLVYTSFSQVQVCTAAGLSLGIILSLALAGILGICIVVVVSIWLFRRKSIKKGDNKGVIYKPATKMETEAHA”, the “percentage of EdU-negative” value in the series on hTERT-HMEC (setting [1]) is 5.44 ± 1.7%; with hTERT-HMEC (protein concentration 0.225 µM), 5.5 ± 1.2%; in the series on MCF7 (setting [1]), 26 ± 0.83%; in the series on MCF7 (protein concentration 0.225 µM), 25.7 ± 0.64%.

Consider “MPRSCCSRSGALLLALLLQASMEVRGWCLESSQCQDLTTESNLLECIRACKPDLSAETPMFPGNGDEQPLTENPRKYVMGHFRWDRFGRRNSSSSGSSGAGQKREDVSAGEDCGPLPEGGPEPRSDGAKPGPREGKRSYSMEHFRWGKPVGKKRRPVKVYPNGAEDESAEAFPLEFKRELTGQRLREGDGPDGPADDGAGAQADLEHSLLVAAEKKDEGPYRMEHFRWGSPPKDKRYGGFMTSEKSQTPLVTLFKNAIIKNAYKKGE”, for which the “percentage of EdU-negative” value with hTERT-HMEC (setting [2]) turned out to be 4.65 ± 0.64%; with hTERT-HMEC (protein concentration 0.125 µM), 8.66 ± 0.81%; with MCF7 (setting [2]), 24.3 ± 6.1%; with MCF7 (protein concentration 0.125 µM), 24.787 ± 0.0019%.

With “MPRYGASLRQSCPRSGREQGQDGTAGAPGLLWMGLVLALALALALALALSDSRVLWAPAEAHPLSPQGHPARLHRIVPRLRDVFGWGNLTCPICKGLFTAINLGLKKEPNVARVGSVAIKLCNLLKIAPPAVCQSIVHLFEDDMVEVWRRSVLSPSEACGLLLGSTCGHWDIFSSWNISLPTVPKPPPKPPSPPAPGAPVSRILFLTDLHWDHDYLEGTDPDCADPLCCRRGSGLPPASRPGAGYWGEYSKCDLPLRTLESLLSGLGPAGPFDMVYWTGDIPAHDVWHQTRQDQLRALTTVTALVRKFLGPVPVYPAVGNHESTPVNSFPPPFIEGNHSSRWLYEAMAKAWEPWLPAEALRTLRIGGFYALSPYPGLRLISLNMNFCSRENFWLLINSTDPAGQLQWLVGELQAAEDRGDKVHIIGHIPPGHCLKSWSWNYYRIVARYENTLAAQFFGHTHVDEFEVFYDEETLSRPLAVAFLAPSATTYIGLNPGYRVYQIDGNYSGSSHVVLDHETYILNLTQANIPGAIPHWQLLYRARETYGLPNTLPTAWHNLVYRMRGDMQLFQTFWFLYHKGHPPSEPCGTPCRLATLCAQLSARADSPALCRHLMPDGSLPEAQSLWPRPLFC”, the “percentage of EdU-negative” value with hTERT-HMEC (setting [1]) came to 4.79 ± 0.51%; in the series with hTERT-HMEC (protein concentration 0.225 µM), 5.82 ± 1.2%; with MCF7 (setting [1]), 24.3 ± 1.8%; in the series on MCF7 (protein concentration 0.225 µM), 24.4 ± 1.7%.

“MPRYVPLLLLLLLLRCSERGGGVNFGEKDAKVPGTWRDGVRVPGEGASWDSDRASPERRYGIVGLSQSISTKHPETSPKDSRIRENDVTADGRTTEDHITADPGTTEDSVTADPGTTEDNVTVDPGTTEGSVTADPATTKDYVSADPGTTKDSVTADPGTTENFVTADPGTTKDSITADPRTTEDSVTADPGTTKHSITVDPGTTEDSVTADPGTTKHSITADPGTTEDSVTADPGTTEDETTKHGDTHLL [E2RYF7]”: the “percentage of EdU-negative” value is 5.3 ± 1.4% with hTERT-HMEC (setting [1]), 5.54 ± 0.41% in the series with hTERT-HMEC (protein concentration 0.225 µM), 23.6 ± 2.3% with MCF7 (setting [1]) and 24.8 ± 0.67% with MCF7 (protein concentration 0.225 µM).

In the case of “MPSLLVLTFSPCVLLGWALLAGGTGGGGVGGGGGGAGIGGGRQEREALPPQKIEVLVLLPQDDSYLFSLTRVRPAIEYALRSVEGNGTGRRLLPPGTRFQVAYEDSDCGNRALFSLVDRVAAARGAKPDLILGPVCEYAAAPVARLASHWDLPMLSAGALAAGFQHKDSEYSHLTRVAPAYAKMGEMMLALFRHHHWSRAALVYSDDKLERNCYFTLEGVHEVFQEEGLHTSIYSFDETKDLDLEDIVRNIQASERVVIMCASSDTIRSIMLVAHRHGMTSGDYAFFNIELFNSSSYGDGSWKRGDKHDFEAKQAYSSLQTVTLLRTVKPEFEKFSMEVKSSVEKQGLNMEDYVNMFVEGFHDAILLYVLALHEVLRAGYSKKDGGKIIQQTWNRTFEGIAGQVSIDANGDRYGDFSVIAMTDVEAGTQEVIGDYFGKEGRFEMRPNVKYPWGPLKLRIDENRIVEHTNSSPCKSSGGLEESAVTGIVVGALLGAGLLMAFYFFRKKYRITIERRTQQEESNLGKHRELREDSIRSHFSVA”, the “percentage of EdU-negative” value in the series with hTERT-HMEC (setting [1]) was 4.9 ± 0.22%; with hTERT-HMEC (protein concentration 0.225 µM) it was 6.51 ± 0.27%; with MCF7 (setting [1]), 24.88 ± 0.14%; in the series with MCF7 (protein concentration 0.225 µM) it was 24.5 ± 1%.

On to “MPSSTAMAVGALSSSLLVTCCLMVALCSPSIPLEKLAQAPEQPGQEKREHASRDGPGRVNELGRPARDEGGSGRDWKSKSGRGLAGREPWSKLKQAWVSQGGGAKAGDLQVRPRGDTPQAEALAAAAQDAIGPELAPTPEPPEEYVYPDYRGKGCVDESGFVYAIGEKFAPGPSACPCLCTEEGPLCAQPECPRLHPRCIHVDTSQCCPQCKERKNYCEFRGKTYQTLEEFVVSPCERCRCEANGEVLCTVSACPQTECVDPVYEPDQCCPICKNGPNCFAETAVIPAGREVKTDECTICHCTYEEGTWRIERQAMCTRHECRQM [Q2TAL6]”, for which the “percentage of EdU-negative” value with hTERT-HMEC (setting [3]) was 5.49 ± 1.1%; in the series on hTERT-HMEC (setting [4]), 7.17 ± 0.096%; in the series on MCF7 (setting [3]), 22.8 ± 3.1%; in the series on MCF7 (setting [4]), 25.17 ± 0.21%.

Turning to “MPSWALFMVTSCLLLAPQNLAQVSSQDVSLLASDSEPLKCFSRTFEDLTCFWDEEEAAPSGTYQLLYAYPREKPRACPLSSQSMPHFGTRYVCQFPDQEEVRLFFPLHLWVKNVFLNQTRTQRVLFVDSVGLPAPPSIIKAMGGSQPGELQISWEEPAPEISDFLRYELRYGPRDPKNSTGPTVIQLIATETCCPALQRPHSASALDQSPCAQPTMPWQDGPKQTSPSREASALTAEGGSCLISGLQPGNSYWLQLRSEPDGISLGGSWGSWSLPVTVDLPGDAVALGLQCFTLDLKNVTCQWQQQDHASSQGFFYHSRARCCPRDRYPIWENCEEEEKTNPGLQTPQFSRCHFKSRNDSIIHILVEVTTAPGTVHSYLGSPFWIHQAVRLPTPNLHWREISSGHLELEWQHPSSWAAQETCYQLRYTGEGHQDWKVLEPPLGARGGTLELRPRSRYRLQLRARLNGPTYQGPWSSWSDPTRVETATETAWISLVTALHLVLGLSAVLGLLLLRWQFPAHYRRLRHALWPSLPDLHRVLGQYLRDTAALSPPKATVSDTCEEVEPSLLEILPKSSERTPLPLCSSQAQMDYRRLQPSCLGTMPLSVCPPMAESGSCCTTHIANHSYLPLSYWQQP”, the “percentage of EdU-negative” value in the series with hTERT-HMEC (setting [5]) worked out at 4.77 ± 0.37%; in the series on hTERT-HMEC (setting [6]), 6.04 ± 0.21%; with MCF7 (setting [5]), 25.4 ± 0.65%; in the series with MCF7 (setting [6]) it was 26.02 ± 0.25%.
